# Laboratory results published in patent US11814689B2 (priority 2021, dated 2023).
# Tests used:
# [1] = test system: plasmid DNA; assay type: biochemical
# [2] = test system: fluorescent dsDNA reporter; assay type: biochemical
# [3] = test system: SARS-CoV-2 N gene RNA; assay type: biochemical; details: IVT SARS-CoV-2 N gene fragment spiked in total RNA of negative swab, no RNA capture
# [4] = test system: ssRNA; assay type: biochemical; details: 425 nM ssRNA, 200 nM nuclease, cyclic oligoadenylates
# [5] = test system: fluorescent ssRNA reporter; assay type: biochemical
# [6] = test system: plasmid DNA
# [7] = test system: ssDNA; assay type: biochemical; details: for ssDNA cleavage activity: 425 nM ssDNA, 200 nM nuclease, cyclic oligoadenylates
# [8] = test system: 2 Kb DNA reporter labelled biotin and digoxigenin; assay type: biochemical
# [9] = test system: SARS-CoV-2 RNA; assay type: biochemical
# [10] = test system: library of 46 synthetic RNAs; assay type: biochemical
# [11] = test system: cA3 and cA4; assay type: biochemical
molecule,measurement,setting,value
"CtNucC: NucC from Clostridium tepidum, NCBI WP_195923598.1, SEQ ID NO. 55 (protein, listed as Clostridium tepidum) MGQIDIKSLFYSLQTQMCAKLSTNRQHIQHPGIKGDSSELNWIEWLKTYLPKRYSVDKAFIIDCDGNMSDQIDVVIYDQQYSPFVFNQDNAYYIPAESVYAIFEVKQEINKENIIYAGDKTKSVRSLKRTSTAIPHAGGYYAPKPHNKILSGILTLSSVWNPPLGKSFEEAIYSLEDESKLDIGCILAEGSFLADYKNDVLMKSTEEESLIFFFLKLLIELQSLGTTPAIDINCYGRALDSI",dsDNase activity among three thermophilic NucC orthologs,[1],highest dsDNase activity
same,size of plasmid DNA digestion fragments,[1],300-400 bp
same,cA3 sensitivity relative to AaCan2,[2],100 fold
same,cA3 sensitivity relative to TtCan1,[2],10 fold
same,lowest concentration of cA3 detected,[2],0.5 nM
same,target RNA concentration detected by TtCsm assay coupled with the nuclease,[3],10^7 copies/μL
"TtCan1: Can1 from Thermus thermophilus, NCBI WP_011229147.1, SEQ ID NO. 61 (protein, listed as Thermus thermophilus) MQAPVYLCLLGNDPAPAYLGLKVVEREAGRVAKAVFYSFPAWNEEYGKKRQAFFRLLSEKGVLYEERPLEKGLEEAEAREVWVNLTGGAKYWAVRFLGHWRRPGARVFLVEGHRALEAPRALFLWPREEERSLEAEALTLEEYARLYLEPLGEAWERVSPPGAFPPGAQAARLPGREGGVFVVHRGLPYWYWVRPHLGGEAKDMSRKALSAFSGEAKRLGGQLCLPVVPYHKAHLRSRHPKERENVFARWRAWAREYGVFLVDPGRPLEEEVASLIKGKASKKALPLPQEGPLLLALVSEQAVPLYAAYLHAGPREVYLLTTPEMESRLRWAEAFFRGKGVRVHRSFLSGPWALREVRDLLAPVVEEALRRGHPVHANLNSGTTAMALGLYLALRDGARAHYLDGDRLLLLDGGEAEVPWEEGRPEDLLALRGYRFEEEYPDARPDPGLLALAEEILRRWDEVQTSWEASPLVRRFLKFWKKRFGQAFPPKRLSRLKGLPLEYAVYSHLNAHLAPKGGQARMGGHLVPLGGNEALAPQSTEVDGVFFHRGALWFVECKPTDEGLRERAPIMAELVRSVGGVEARGLMVARRWRGAPPPASPNLVYMALEGGEGVGVYRFPEELEKALSRNPAPRRG",plasmid DNA cleavage with cA4,[1],comparable to the background activity
same,size of plasmid DNA degradation fragments,[1],~100 bp
same,ssRNA cleavage activity,[4],cA4-dependent single-stranded RNase
same,RNA reporter cleavage compared with AaCan2,[5],requires higher concentrations of cA4 and produces less fluorescent signal
same,DNA sequence cleavage preference,[6],non-sequence specific
same,ssDNA cleavage activity,[7],does not cleave ssDNA
same,lateral flow result with cA3,[8],positive result
same,lateral flow result with cA4,[8],negative result
"AaCan2: Can2 from Archaeoglobi archaeon JdFR-42, JGI 2730024700, SEQ ID NO. 59 (protein, Archaeoglobi archaeon) MSHIHVCLVSDQAIPNLTTALQFNPDTTVLLSTNEMKDKAKRLETVLKNKGLKVKTLKISAYDINDVITVSESLLNDCKGCKVSLNITGGTKIGTLGTFQVFYTASKPIFYVNTKDNEIIKLYPEKEQQKYPIEISISIKDYLAVYGFNVKSYVKDDSYIYKRKKVTDYLANLVIHRPNIIGEINYKLQNFEEKSYPLKINITKNKQVIKLYDILKDSGLVKIRNKSTIEIPDVETAKYLNGIWFEEYVYMMAKSLGADEVKLNVKGVWDTVGKHPPTNEFDILISKGNRLFYISCKTANPDRKIDDTDETIGKEYLYELDSISDSALGLFGKRMLASARAIKNDYVRKRAEILKIDIADGQNIATLKGKLQQWLSK",SARS-CoV-2 RNA concentration detected directly in swabs,"[9]; RNA capture with AaCan2 readout, no RNA extraction or pre-amplification",5×10^4 copies/μL
same,Ct of unprocessed swab samples detected,"[9]; no RNA purification, lysis buffer 0.05% Triton X-100 and 1 mM EGTA, AaCan2 readout",> 21.2
same,loss of sensitivity compared to detection using purified RNA,[9]; unprocessed swab vs purified RNA,~5 fold
same,"dsDNase activity, activator and metal dependence",[1],Mn^2+- and cA3-dependent dsDNase
same,ssRNA cleavage activity,[4],ssRNase when activated with cA4
same,cA4 concentration giving a similar fluorescent signal,[5],0.5 nM
same,cA4 range in which rate of fluorescent signal is proportional to activator,[5],1 to 10 nM
same,fold less cA4 needed than TtCsm6 for similar fluorescent signal,[5],20 fold
same,ssRNA sequence cleavage preference,[10],ACGACG
same,ssDNA cleavage activity,[7],Reproducible cleavage of ssDNA is also detectable
same,cA4 concentration required for robust ssDNA cleavage,[7]; Mn^2+-specific,45 nM
same,ring-nuclease activity on cyclic nucleotide activator,[11],binds and preserves the cyclic nucleotide
same,target RNA concentration detected by TtCsm assay coupled with the nuclease,[3],10^5 copies/μL
